Measured values from publication PMC8882047.
Read-outs that look alike come from different tables or passages of the source.

B1: human α2-antiplasmin (natural protein)
chain: NQEQVSPLTLLKLGNQEPGGQTALKSPPGVCSRDPTPEQTHRLARAMMAFTADLFSLVAQTSTCPNLILSPLSVALALSHLALGAQNHTLQRLQQVLHAGSGPCLPHLLSRLCQDLGPGAFRLAARMYLQKGFPIKEDFLEQSEQLFGAKPVSLTGKQEDDLANINQWVKEATEGKIQEFLSGLPEDTVLLLLNAIHFQGFWRNKFDPSLTQRDSFHLDEQFTVPVEMMQARTYPLRWFLLEQPEIQVAHFPFKNNMSFVVLVPTHFEWNVSQVLANLSWDTLHPPLVWERPTKVRLPKLYLKHQMDLVATLSQLGLQELFQAPDLRGISEQSLVVSGVQHQSTLELSEVGVEAAAATSIAMSRMSLSSFSVNRPFLFFIFEDTTGLPLFVGSVRNPNPSAPRELKEQQDSPGNKDFLQSLKGFPRGDKLFGPDLKLVPPMEEDYPQFGSPK

Columns and labels:
[1] = target: human plasmin (purified) (human); experiment: enzyme inhibition titration
[2] = target: human plasmin (purified) (human); experiment: enzyme inhibition progress curves
[3] = target: human plasmin (purified) (human); experiment: enzyme inhibition titration; remark: listed apart in the source

| Molecule | stoichiometry of inhibition (SI) [1] | kon [2] [M⁻¹ s⁻¹] | stoichiometry of inhibition (SI) [3] |
| --- | --- | --- | --- |
| miropin (recombinant, tag-free) (from UniProt G8UQY8 1-432) (natural protein) | 2.3 | – | – |
| B1 | – | 1.3e+06 | 1.1 |
